Source: publication doi:10.1101/2022.01.02.474068

Target: BTN2A1 B30.2 domain (human)
Test: SEC-MALS

- stoichiometry N: 2
Substance: BTN2A1 B30.2 domain (domain or fragment)
